Test results from patent US20260184804A1 (KEY2BRAIN, published 2026).
Changes are numbered by the printed parent chain. Names may count otherwise.

Legend:
[1] = target: T1, His-tagged ectodomain of human transferrin receptor 1 (hTfR1), amino acids R121-F760 (human, UniProt P02786 121-760); test: SPR (Biacore T200); hTfR1 amine-coupled (~2300 RU), single concentration
T1 construct: Made in CHO cells, purified by IMAC; also called human TfR1; ectodomain of hTfR1
Method: (§1) Briefly, hTfR1 was covalently immobilized to the surface of a CM5 chip (Cytiva) by amine coupling using standard reagents. […] Subsequently, all six VHHs were diluted in running buffer (PBS supplemented with 0.05% Tween® 20 (PBS-T)) to 100 nM. A signal equal or higher than the corresponding WT was regarded as “binding similar to WT” (see Table 11).

[2] = target: T1, His-tagged ectodomain of human …; test: SPR (Biacore T200); hTfR1 amine-coupled (~1000 RU), single concentration; - = no apparent binding
Method: (§2) Briefly, hTfR1 was covalently immobilized to the surface of a CM5 chip (Cytiva) by amine coupling using standard reagents. Human TfR1 was diluted to 15 μg/mL in 10 mM sodium acetate pH 5.5 and immobilizing level was aimed to 1000 response units (RUs). Subsequently, all VHHs were diluted in running buffer (PBS supplemented with 0.05% Tween® 20) to 50 nM. […] Similarly, KB_A15 was also only tested fused to a His6 tag.
(§3) KB_A20-KB_A31 were only produced in CHO cells and purified by PrismA™ resin.

[3] = target: T1, His-tagged ectodomain of human …; test: SPR (Biacore 8K, single-cycle); hTfR1 amine-coupled on CM5, fusion as analyte 0.25-64 nM
[4] = target: T1, His-tagged ectodomain of human …; test: SPR; hTfR1 pre-complexed with immobilised hTf
[5] = target: T1, His-tagged ectodomain of human …; test: SPR (Biacore T200, single-cycle); hTfR1 captured on amine-coupled hTf, binder as analyte 6.25-100 nM
[6] = target: T2, His-tagged ectodomain of mouse transferrin receptor 1 (mTfR1), amino acids S122-F763 (mouse, UniProt Q62351 122-763); test: SPR (Biacore T200); mTfR1 amine-coupled on CM5, KB_A01 as analyte
T2 construct: Made in CHO cells; also called mouse TfR1
T2 sequence (Q62351 other isoform, or with tags, fused parts or gaps limits assumed): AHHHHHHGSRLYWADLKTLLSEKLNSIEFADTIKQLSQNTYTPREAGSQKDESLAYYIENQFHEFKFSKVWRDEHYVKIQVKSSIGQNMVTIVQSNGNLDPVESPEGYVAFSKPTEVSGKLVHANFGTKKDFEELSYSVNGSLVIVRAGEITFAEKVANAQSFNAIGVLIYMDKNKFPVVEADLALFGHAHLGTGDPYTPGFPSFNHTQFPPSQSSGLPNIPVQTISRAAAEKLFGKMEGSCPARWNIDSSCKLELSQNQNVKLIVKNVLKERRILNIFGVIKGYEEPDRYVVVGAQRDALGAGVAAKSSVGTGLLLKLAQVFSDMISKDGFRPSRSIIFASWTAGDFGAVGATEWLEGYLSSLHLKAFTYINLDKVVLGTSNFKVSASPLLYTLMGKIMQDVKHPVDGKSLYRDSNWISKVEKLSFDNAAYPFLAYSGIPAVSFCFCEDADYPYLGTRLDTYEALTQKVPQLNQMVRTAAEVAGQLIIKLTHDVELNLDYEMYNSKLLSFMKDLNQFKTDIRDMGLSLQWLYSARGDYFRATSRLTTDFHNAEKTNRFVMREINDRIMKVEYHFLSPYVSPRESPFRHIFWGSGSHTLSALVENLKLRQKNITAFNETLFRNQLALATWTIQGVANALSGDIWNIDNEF
Method: The contact time was 150 s for each concentration at […] with a final dissociation step of 500 s. […] At the end of each single cycle run, the mTfR1 surface was fully regenerated by an injection of 10 mM NaOH for 30 s. After each single cycle kinetic run, blank run was performed and used for baseline correction. The data with respect to the association rate constant (ka), the dissociation rate constant (kd) and the equilibrium dissociation constant (KD) was evaluated using Biacore T200 software evaluation tool applying a Langmuir 1:1 model.

[7] = target: T1, His-tagged ectodomain of human …; test: SPR (Biacore T200); hTfR1 amine-coupled (~1000 RU), VHH at 50 nM; X = binding similar to control
Method: as §2, §3

[8] = target: T1, His-tagged ectodomain of human …; test: SPR (Biacore T200); hTfR1 amine-coupled (~1000 RU), VHH at 50 nM; (-) = binding affinity severely decreased
Method: as §2, §3

[9] = target: T2, His-tagged ectodomain of mouse …; test: phage ELISA on coated mTfR1 (1 µg/ml)
[10] = target: T1, His-tagged ectodomain of human …; test: SPR (Biacore T200); hTfR1 amine-coupled (~1000 RU), VHH at 50 nM; (X) = binding affinity decreased
Method: as §2, §3

[11] = target: T1, His-tagged ectodomain of human …; test: SPR (Biacore T200); hTfR1 amine-coupled (~2300 RU), VHH at 100 nM; column: binding to hTfR1 similar to corresponding WT VHH
Method: as §1

T1 sequence (P02786 other isoform, or with tags, fused parts or gaps limits assumed): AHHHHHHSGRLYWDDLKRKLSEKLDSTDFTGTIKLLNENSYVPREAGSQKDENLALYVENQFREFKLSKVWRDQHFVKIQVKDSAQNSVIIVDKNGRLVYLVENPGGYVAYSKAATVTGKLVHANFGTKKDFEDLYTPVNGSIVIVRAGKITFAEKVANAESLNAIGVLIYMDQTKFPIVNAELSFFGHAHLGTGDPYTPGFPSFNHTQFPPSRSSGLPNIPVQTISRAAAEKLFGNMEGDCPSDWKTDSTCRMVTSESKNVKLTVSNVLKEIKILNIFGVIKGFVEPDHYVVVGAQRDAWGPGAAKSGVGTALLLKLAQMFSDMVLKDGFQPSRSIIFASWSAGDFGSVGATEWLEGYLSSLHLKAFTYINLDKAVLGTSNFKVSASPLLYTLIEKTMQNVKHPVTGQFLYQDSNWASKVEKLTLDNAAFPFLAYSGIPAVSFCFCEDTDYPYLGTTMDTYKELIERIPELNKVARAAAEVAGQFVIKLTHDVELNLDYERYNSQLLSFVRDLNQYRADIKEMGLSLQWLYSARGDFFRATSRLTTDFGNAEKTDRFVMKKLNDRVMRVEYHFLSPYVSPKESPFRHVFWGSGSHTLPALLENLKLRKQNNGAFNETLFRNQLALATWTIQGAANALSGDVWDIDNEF

B1: ProA positive control 1 with GGHHHHHH tag (VHH)
VHH: QVQLQESGGGLVQPGGSLRLSCAASGFTFSSYAMSWVRQAPGKGLEWVSAISGSGGSTYYADSVKGRFTISRDNSKNTLYLQMNSLRAEDTAVYYCGTDMEVWGKGTTVTVSSGGHHHHHH
B1: no binding (tested: 100 nM) [1].

B2: KB_A19 (humanized variant of KB_A01) (VHH)
VHH: EVQLVESGGGLVQPGGSLRLSCAASGSIFGSKRMGWVRQAPGKGLEWVSAITYRGTTYYADSVKGRFTISRDNSKNTLYLQMNSLRAEDTAVYYCARFTTDNYWGQGTLVTVSS
notes: Free VHH from CHO cells without tag; also run as His6-tagged E. coli form
B2: no binding (tested: 50 nM) [2].

B3: scFv-KB_A01 (scFv of 3D6 at the N-terminus of KB_A01) (bispecific antibody)
chain: EVKLVESGGGLVKPGASLKLSCAASGFTFSNYGMSWVRQNSDKRLEWVASIRSGGGRTYYSDNVKGRFTISRENAKNTLYLQMSSLKSEDTALYYCVRYDHYSGSSDYWGQGTTVTVSGGGGSGGGGSGGGGSYVVMTQTPLTLSVTIGQPASISCKSSQSLLDSDGKTYLNWLLQRPGQSPKRLIYLVSKLDSGVPDRFTGSGSGTDFTLKISRIEAEDLGLYYCWQGTHFPRTFGGGTKLEIKGGGGSGGGGSGGGGSQVQLQESGGGSVQAGGSLSLSCAASGSIFGSKRMGWFRQAPGEQRDVVATITYRGTTEYADSVKGRFTISRDNAKNTVYLQMNNLKPEDTAVYYCWMFTTDNYWGQGTQVTVSSGSENLYFQSHHHHHH
notes: Monovalent for TfR1; also called scFv-VHH
B3 was tested, and the Kd [3] was 3.16 nM, the koff [3] was 0.00539 s⁻¹ and the kon [3] was 1.7e+06 M⁻¹ s⁻¹.

B4: KB_A01, monomeric free VHH with C-terminal 6xHis tag and C-tag (VHH)
VHH: QVQLQESGGGSVQAGGSLSLSCAASGSIFGSKRMGWFRQAPGEQRDVVATITYRGTTEYADSVKGRFTISRDNAKNTVYLQMNNLKPEDTAVYYCWMFTTDNYWGQGTQVTVSS
notes: From the periplasm of E. coli
B4 was tested, and the “fold lower affinity (KD) than the bivalent BA1” value [4] was 206 fold, the Kd [5] was 4.1 nM and the koff [5] was 0.00414 s⁻¹. The kon [5] was 1.01e+06 M⁻¹ s⁻¹ and the binding result [6] was “no binding (tested: 6.25 to 100 nM)”.

B5: KB_A18 (humanized variant of KB_A01) (VHH)
VHH: B4 VHH with Q1E, Q5V, S11L, A14P, S19R, E43K, V78I, N84S, K86R, Q109L
notes: Free VHH from CHO cells without tag; also run as His6-tagged E. coli form; also called KB3_A18
B5: binds [7].

B6: KB_A31 (KB_A18 plus M97R) (VHH)
VHH: EVQLVESGGGLVQPGGSLRLSCAASGSIFGSKRMGWFRQAPGKQRDVVATITYRGTTEYADSVKGRFTISRDNAKNTIYLQMNSLRPEDTAVYYCWRFTTDNYWGQGTLVTVSS
notes: Free VHH from CHO cells, no tag
B6: no binding (tested: 50 nM) [2].

B7: KB_A21 (KB_A18 plus Q44G) (VHH)
VHH: B6 VHH with Q44G, R97M
notes: as for B6
B7: binds [7].

B8: KB_A20 (KB_A18 plus F37V) (VHH)
VHH: B6 VHH with F37V, R97M
notes: Free VHH from CHO cells, no tag, purified on PrismA resin
B8: no binding (tested: 50 nM) [2].

B9: KB_A24 (KB_A18 plus V47W) (VHH)
VHH: B6 VHH with V47W, R97M
notes: as for B6
B9: binds [8].

B10: KB_A01 clone displayed on phage (VHH)
VHH: B4 VHH
B10: no binding [9].

B11: KB_A26 (KB_A18 plus T50A) (VHH)
VHH: B6 VHH with T50A, R97M
notes: as for B6
B11: no binding (tested: 50 nM) [2].

B12: KB_A17 (humanized variant of KB_A01) (VHH)
VHH: B6 VHH with I78V, R97M, L109Q
notes: as for B2
B12: binds [7].

B13: KB_A25 (KB_A18 plus A49S) (VHH)
VHH: B6 VHH with A49S, R97M
notes: as for B6
B13: no binding (tested: 50 nM) [2].

B14: KB_A28 (KB_A18 plus A74S) (VHH)
VHH: B6 VHH with A74S, R97M
notes: as for B6
B14: binds [7].

B15: KB_A16 (humanized variant of KB_A01) (VHH)
VHH: B6 VHH with L11S, I78V, R97M, L109Q
notes: Free VHH from CHO cells without tag
B15: binds [7].

B16: KB_A27 (KB_A18 plus E58Y) (VHH)
VHH: B6 VHH with E58Y, R97M
notes: as for B6
B16: binds [10].

B17: KB_A23 (KB_A18 plus D46E) (VHH)
VHH: B6 VHH with D46E, R97M
notes: as for B6
B17: binds [7].

B18: KB_A22 (KB_A18 plus R45L) (VHH)
VHH: B6 VHH with R45L, R97M
notes: as for B6
B18: binds [7].

B19: KB_A30 (KB_A18 plus W96A) (VHH)
VHH: B6 VHH with W96A, R97M
notes: as for B6
B19: no binding (tested: 50 nM) [2].

B20: KB_A01-scFv (scFv of 3D6 at the C-terminus of KB_A01) (bispecific antibody)
chain: QVQLQESGGGSVQAGGSLSLSCAASGSIFGSKRMGWFRQAPGEQRDVVATITYRGTTEYADSVKGRFTISRDNAKNTVYLQMNNLKPEDTAVYYCWMFTTDNYWGQGTQVTVSSGGGGSGGGGSGGGGSEVKLVESGGGLVKPGASLKLSCAASGFTFSNYGMSWVRQNSDKRLEWVASIRSGGGRTYYSDNVKGRFTISRENAKNTLYLQMSSLKSEDTALYYCVRYDHYSGSSDYWGQGTTVTVSGGGGSGGGGSGGGGSYVVMTQTPLTLSVTIGQPASISCKSSQSLLDSDGKTYLNWLLQRPGQSPKRLIYLVSKLDSGVPDRFTGSGSGTDFTLKISRIEAEDLGLYYCWQGTHFPRTFGGGTKLEIKGSENLYFQSHHHHHH
notes: Monovalent for TfR1; also called VHH-scFv
With B20 the Kd [3] was 3.44 nM, the koff [3] was 0.0075 s⁻¹ and the kon [3] was 2.18e+06 M⁻¹ s⁻¹.

B21: KB_A12 (KB_A01: S19R, N84S) with GGHHHHHH tag (VHH)
VHH: QVQLQESGGGSVQAGGSLRLSCAASGSIFGSKRMGWFRQAPGEQRDVVATITYRGTTEYADSVKGRFTISRDNAKNTVYLQMNSLKPEDTAVYYCWMFTTDNYWGQGTQVTVSSGGHHHHHH
B21: binds [11].

B22: KB_A15 (KB_A01: S19R, V78I, N84S), His6-tagged (VHH)
VHH: B4 VHH with S19R, V78I, N84S
notes: also called KB3_A15
B22: binds [7].
